Experiments:
[1] = target: LAP-mIFNβ fusion protein (human (LAP of TGFβ) fused to mouse (IFNβ)); experiment: cell-based or functional assay
[2] = test system: CHO-derived latent TGFβ binding protein (LTBP)
[3] = test system: 75 kDa glycosylated product of LAP-mIFNβ
[4] = test system: 75 kDa glycosylated product of mIFNβ-LAP
75 kDa glycosylated product of mIFNβ-LAP, sequence (chain, as listed by the source): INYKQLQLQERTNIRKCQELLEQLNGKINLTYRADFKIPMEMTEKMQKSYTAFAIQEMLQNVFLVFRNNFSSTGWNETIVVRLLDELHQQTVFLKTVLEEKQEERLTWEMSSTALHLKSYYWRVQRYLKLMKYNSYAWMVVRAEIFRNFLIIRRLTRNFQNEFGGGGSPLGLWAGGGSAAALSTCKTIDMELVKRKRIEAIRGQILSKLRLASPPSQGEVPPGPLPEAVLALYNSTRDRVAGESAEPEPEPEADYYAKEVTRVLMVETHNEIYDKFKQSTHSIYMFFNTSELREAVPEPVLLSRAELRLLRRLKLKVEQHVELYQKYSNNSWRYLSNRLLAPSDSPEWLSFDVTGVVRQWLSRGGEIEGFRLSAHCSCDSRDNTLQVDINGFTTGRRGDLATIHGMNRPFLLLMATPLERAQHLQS

LAP-mIFNβ fusion protein, sequence (chain, as listed by the source): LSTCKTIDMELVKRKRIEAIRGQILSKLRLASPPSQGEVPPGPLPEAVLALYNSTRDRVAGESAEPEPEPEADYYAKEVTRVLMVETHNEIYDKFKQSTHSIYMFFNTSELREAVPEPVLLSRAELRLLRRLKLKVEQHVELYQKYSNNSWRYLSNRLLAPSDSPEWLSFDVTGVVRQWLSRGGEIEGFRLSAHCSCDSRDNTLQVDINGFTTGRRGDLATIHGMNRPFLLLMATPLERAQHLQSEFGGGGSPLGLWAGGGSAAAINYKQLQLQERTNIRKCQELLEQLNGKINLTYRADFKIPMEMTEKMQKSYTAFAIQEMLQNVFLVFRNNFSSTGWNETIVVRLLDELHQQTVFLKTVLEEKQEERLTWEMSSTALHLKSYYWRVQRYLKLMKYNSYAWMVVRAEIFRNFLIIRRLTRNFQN
recombinant pro-MMP9, sequence (P14780 20-707): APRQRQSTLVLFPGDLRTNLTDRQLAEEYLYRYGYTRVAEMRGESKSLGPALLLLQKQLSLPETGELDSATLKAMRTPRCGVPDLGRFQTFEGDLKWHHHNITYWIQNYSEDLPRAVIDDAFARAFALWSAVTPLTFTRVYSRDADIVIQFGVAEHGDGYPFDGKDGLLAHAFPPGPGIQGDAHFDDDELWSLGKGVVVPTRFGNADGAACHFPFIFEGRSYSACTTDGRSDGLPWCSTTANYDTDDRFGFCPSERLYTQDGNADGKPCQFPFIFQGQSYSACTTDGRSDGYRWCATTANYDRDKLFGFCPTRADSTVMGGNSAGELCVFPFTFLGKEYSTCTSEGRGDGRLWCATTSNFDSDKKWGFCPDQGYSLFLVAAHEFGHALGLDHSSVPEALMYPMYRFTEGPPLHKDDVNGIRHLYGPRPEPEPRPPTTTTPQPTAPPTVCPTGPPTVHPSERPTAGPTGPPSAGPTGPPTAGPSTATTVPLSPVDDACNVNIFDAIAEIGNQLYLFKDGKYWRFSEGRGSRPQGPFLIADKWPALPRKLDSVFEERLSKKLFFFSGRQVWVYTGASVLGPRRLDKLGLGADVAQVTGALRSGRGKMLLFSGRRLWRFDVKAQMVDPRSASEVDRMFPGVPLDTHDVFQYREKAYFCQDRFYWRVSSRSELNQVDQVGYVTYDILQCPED
active MMP1 (recombinant), sequence (P03956 100-469): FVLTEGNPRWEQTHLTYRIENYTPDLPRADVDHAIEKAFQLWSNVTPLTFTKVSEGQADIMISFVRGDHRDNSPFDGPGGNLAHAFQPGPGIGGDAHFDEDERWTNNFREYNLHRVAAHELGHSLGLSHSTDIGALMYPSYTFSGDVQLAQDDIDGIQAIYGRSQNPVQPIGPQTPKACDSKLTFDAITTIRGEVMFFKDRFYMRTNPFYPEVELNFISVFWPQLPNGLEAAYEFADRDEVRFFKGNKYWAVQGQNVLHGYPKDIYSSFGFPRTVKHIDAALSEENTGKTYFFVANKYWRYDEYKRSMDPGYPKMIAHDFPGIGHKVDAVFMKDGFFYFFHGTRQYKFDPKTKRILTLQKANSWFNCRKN

| Substance | fold activation of antiviral activity (non-concentrated supernatants from MTX amplified cells) [1] | mIFNβ biological activity (U/ml) after MMP treatment (LAP-mIFNβ fusion protein) | proteolytic cleavage (LAP-mIFNβ fusion protein) | proteolytic cleavage of immunoprecipitated protein, SDS-PAGE (LAP-mIFNβ fusion protein) | mIFNβ biological activity (U/ml) after MMP treatment (mIFNβ-LAP fusion protein) | proteolytic cleavage (mIFNβ-LAP fusion protein) | proteolytic cleavage of immunoprecipitated protein, SDS-PAGE (mIFNβ-LAP fusion protein) | proteolytic cleavage of immunoprecipitated protein, SDS-PAGE [2] | proteolytic cleavage of immunoprecipitated protein, SDS-PAGE [3] | proteolytic cleavage of immunoprecipitated protein, SDS-PAGE [4] |
| --- | --- | --- | --- | --- | --- | --- | --- | --- | --- | --- |
| active MMP1 (recombinant) (enzyme) | 21 fold | – | – | – | – | – | – | – | – | – |
| recombinant pro-MMP9 | – | 288 U/ml | MMP9 could not cleave the fusion proteins | pro-MMP9 or MMP1 did not cleave very efficiently the 57 kDa recombinant product | 1540 U/ml | MMP9 could not cleave the fusion proteins | pro-MMP9 or MMP1 did not cleave very efficiently the 57 kDa recombinant product | – | – | – |
| active MMP3 (recombinant) | – | 9220 U/ml | – | MMP3 was capable on its own to digest it into several discreet bands | 3070 U/ml | – | MMP3 was capable on its own to digest it into several discreet bands | The LTBP band was also cleaved by MMP3 | – | – |
| active MMP1 (recombinant) | – | 6140 U/ml | – | pro-MMP9 or MMP1 did not cleave very efficiently the 57 kDa recombinant product | 6140 U/ml | – | pro-MMP9 or MMP1 did not cleave very efficiently the 57 kDa recombinant product | – | MMP1 was capable of cleaving the glycosylated form of the fusion protein | MMP1 was capable of cleaving the glycosylated form of the fusion protein |
| active MMP3 (recombinant) (enzyme) | 32 fold | – | – | – | – | – | – | – | – | – |

From patent US6942853
